What was measured:
Experiment in all cases: double-filter binding
[1] = tested on: Mini-PhΔSAM; conditions: apparent Kd, n=4; Filter binding: 60 mM KCl, 12 mM Hepes pH 7.9, 0.24 mM EDTA, 4% glycerol, 0.02 nM probe, 1 h at room temperature
[2] = tested on: Mini-Ph-ML; conditions: apparent Kd, n=3; Filter binding: 60 mM KCl, 12 mM Hepes pH 7.9, 0.24 mM EDTA, 4% glycerol, 0.02 nM probe, 1 h at room temperature
[3] = tested on: Mini-Ph EH; conditions: apparent Kd, n=5; Filter binding: 60 mM KCl, 12 mM Hepes pH 7.9, 0.24 mM EDTA, 4% glycerol, 0.02 nM probe, 1 h at room temperature
[4] = tested on: Mini-Ph; conditions: apparent Kd, n=10; Filter binding: 60 mM KCl, 12 mM Hepes pH 7.9, 0.24 mM EDTA, 4% glycerol, 0.02 nM probe, 1 h at room temperature

**Q.** What does the source list for 150-bp DNA probe?
**A.** Kd [1]: 990 nM; Kd [2]: 190 nM; Kd [3]: 706 nM; Kd [4]: 37 nM
